Experimental data reported in the supplement of paper PMC7125110.
± gives the standard error. For part of these data: Fewer inactive variants are shown than the library holds.

B1: glmS ribozyme (parent)
chain: AUAAAAGCGCCAGAACUACAGAAAUGUAGUUGACGAGGAGGAGGUUUAUCGAAUUUUCGGCGGAUGCCUCCAAA

What was measured:
Details in all cases: with glucosamine-6-phosphate
[1] = variants of: B1; assay: kcat; higher = faster cleavage; RNA array
Summary of the method: (§1)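 The measurements used barcoded ribozyme variants on sequenced MiSeq chips, transcribed in situ by E. coli RNA polymerase and tracked at 37 °C with a hybridised Cy3 probe. Glucosamine-6-phosphate, 40 μM to 10 mM in HEPES/KCl/Mg(OAc)2 buffer, was flowed in while tiles were imaged over ~14 h. Baseline-normalised signals, also normalised to non-cleaving reference variants, gave per-tile medians that were fit to one- or two-exponential decays for kobs. kcat and KM resulted from weighted Michaelis–Menten fits across concentrations.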

[2] = variants of: B1; assay: self-cleavage kobs at 40 uM GlcN6P; higher = faster cleavage; RNA array
Summary of the method: as §1

[3] = variants of: B1; assay: self-cleavage kobs at 160 uM GlcN6P; higher = faster cleavage; RNA array
Summary of the method: as §1

[4] = variants of: B1; assay: self-cleavage kobs at 640 uM GlcN6P; higher = faster cleavage; RNA array
Summary of the method: as §1

[5] = variants of: B1; assay: self-cleavage kobs at 2500 uM GlcN6P; higher = faster cleavage; RNA array
Summary of the method: as §1

[6] = variants of: B1; assay: self-cleavage kobs at 10000 uM GlcN6P; higher = faster cleavage; RNA array
Summary of the method: as §1

[7] = variants of: B1; assay: KM; higher = weaker cofactor use; RNA array
Summary of the method: as §1

Variant | kcat [1] [s⁻¹] | self-cleavage kobs at 40 uM GlcN6P [2] [s⁻¹] | self-cleavage kobs at 160 uM GlcN6P [3] [s⁻¹] | self-cleavage kobs at 640 uM GlcN6P [4] [s⁻¹] | self-cleavage kobs at 2500 uM GlcN6P [5] [s⁻¹] | self-cleavage kobs at 10000 uM GlcN6P [6] [s⁻¹] | KM [7] [µM]
U54C A64G | 0.016 ± 0.0067 | 0.000616 ± 8.4e-05 | 0.00156 ± 0.00033 | 0.00883 ± 0.0018 | 0.0287 ± 0.0082 | 0.0123 ± 0.0031 | 
G29A G60C | < 1e-05 |  |  | < 1e-05 |  | < 1e-05 | 
A14G G29C | 0.000331 ± 6.9e-05 |  | 6.33e-05 ± 1.1e-05 | 9.55e-05 ± 8.8e-06 | 0.000253 ± 2.6e-05 | 0.00028 ± 2.9e-05 | 1330 ± 540
G9A U54C | 0.000246 ± 5.5e-05 |  |  |  |  | 3.34e-05 ± 1.3e-05 | 
C16U U56C | 0.00495 ± 0.00037 | 4.49e-05 ± 7.9e-06 | 0.00024 ± 8.3e-05 | 0.000693 ± 0.00011 | 0.00199 ± 0.00037 | 0.00349 ± 0.00036 | 4050 ± 460
C16G A39C | 0.000798 ± 6e-05 |  | 4.38e-05 ± 9.6e-06 | 0.000184 ± 2.9e-05 | 0.000427 ± 6.6e-05 | 0.000629 ± 7.2e-05 | 2400 ± 310
A48G U69C | 9.33e-05 ± 2.9e-05 |  |  |  | 9.27e-05 ± 3.5e-05 | 7.34e-05 ± 2.5e-05 | 
U45C U55G | 0.0035 ± 0.0008 | 6.05e-05 ± 8.1e-06 |  | 0.000502 ± 9.9e-05 | 0.00165 ± 0.00048 | 0.00283 ± 0.00033 | 2770 ± 960
G13U C70G | 4.04e-05 ± 3e-06 |  |  | 4.63e-05 ± 9.7e-06 | 3.94e-05 ± 6.3e-06 | 3.71e-05 ± 6.7e-06 | 
C61G G63C | < 1e-05 | < 1e-05 | < 1e-05 |  | < 1e-05 |  | 181 ± 67
G38A G51U | < 1e-05 | < 1e-05 |  | < 1e-05 |  | < 1e-05 | 
A52U C70A | 5.6e-05 ± 1.2e-05 |  | 3.06e-05 ± 1.5e-05 | 3.63e-05 ± 1.3e-05 | 8.32e-05 ± 1.6e-05 | 4.7e-05 ± 1e-05 | 
U47C U65G | 0.00435 ± 0.0005 | 4.89e-05 ± 1.1e-05 |  | 0.000565 ± 0.00011 | 0.00189 ± 0.00047 | 0.00312 ± 0.0006 | 3840 ± 610
C11U A14C | 0.000773 ± 0.00026 |  | 8.34e-05 ± 1.7e-05 | 0.000151 ± 2.1e-05 | 0.000275 ± 5.2e-05 | 0.000712 ± 8.5e-05 | 
A48C U55C | 0.000419 ± 0.00015 |  |  | 6.73e-05 ± 1.2e-05 | 0.000327 ± 4.9e-05 | 0.00029 ± 4.9e-05 | 
